This note sets out measurements from US20250243261A1.

For the assay, the target named is SARS-CoV-2 BQ.1.1 Spike RBD (SARS-CoV-2 BQ.1.1 variant). The experiment in a line: BLI, IgG. (In general: In BLI a coated tip is dipped into the sample, and binding shifts an interference pattern.)

LY-1404 WT IgG (antibody), sequence (VH): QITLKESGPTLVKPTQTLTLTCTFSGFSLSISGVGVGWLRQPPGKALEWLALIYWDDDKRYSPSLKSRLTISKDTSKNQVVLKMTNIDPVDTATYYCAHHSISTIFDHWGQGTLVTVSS
LY-1404 WT IgG (antibody), sequence (VL): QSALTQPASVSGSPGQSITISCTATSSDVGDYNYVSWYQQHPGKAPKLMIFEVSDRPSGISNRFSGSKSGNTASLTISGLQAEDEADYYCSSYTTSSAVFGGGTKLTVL

By Kd is commonly meant the equilibrium constant for the complex coming apart. A lower Kd goes with higher affinity. As for LY-1404 WT IgG (antibody), the Kd came to 1.7 µM.
